Reference: US20220389118A1 (Chugai, published 2022)
Residue numbers refer to the chain shown, from its start. Values belong to the binder of their own block, whether it stands above or below them.

Experiments:
[1] = target: T1, soluble human IL-6 receptor (human, UniProt P08887 20-357); experiment: SPR (Biacore T100), antibody captured on a Protein A/G chip (CM5), human IL-6 receptor as analyte, 1.2 mM CaCl2, pH 7.4, 37 °C
T1 construct: also called hsIL-6R
T1 sequence: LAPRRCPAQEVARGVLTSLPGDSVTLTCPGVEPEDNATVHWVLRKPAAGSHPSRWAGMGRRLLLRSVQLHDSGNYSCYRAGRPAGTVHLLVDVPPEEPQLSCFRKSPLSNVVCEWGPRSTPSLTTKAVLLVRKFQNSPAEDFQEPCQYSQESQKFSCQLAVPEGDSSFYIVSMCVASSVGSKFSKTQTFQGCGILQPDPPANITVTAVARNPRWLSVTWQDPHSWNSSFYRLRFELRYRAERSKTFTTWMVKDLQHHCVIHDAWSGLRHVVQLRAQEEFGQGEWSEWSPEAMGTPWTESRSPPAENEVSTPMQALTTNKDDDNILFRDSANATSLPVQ
Protocol: The interaction was analyzed in solutions at 1.2 mM and 3 μM calcium ion concentration, corresponding to high and low calcium ion concentration conditions, respectively. An appropriate amount of Protein A/G (Invitrogen) was immobilized onto a Sensor chip CM5 (GE Healthcare) by an amino coupling method, and antibodies of interest were captured onto the chip. The two types of running buffers used were: 20 mM ACES/150 mM NaCl/0.05% (w/v) Tween20/1.2 mM CaCl₂ (pH 7.4); and 20 mM ACES/150 mM NaCl/0.05% (w/v) Tween20/3 μM CaCl₂ (pH 7.4). These buffers were each used to dilute human IL-6 receptor. All measurements were carried out at 37° C.
Then, 10 mM glycine-HCl (pH 1.5) was injected at a flow rate of 30 μl/min for 30 seconds to regenerate the sensor chip.

[2] = target: T2, human FcγRIIb extracellular domain with C-terminal His tag (human, UniProt P31994 43-217); experiment: SPR (Biacore); KD for FcγRIIaR divided by KD for FcγRIIb
T2 construct: extracellular domain; not shown: His tag at the C terminus
T2 sequence (looked up): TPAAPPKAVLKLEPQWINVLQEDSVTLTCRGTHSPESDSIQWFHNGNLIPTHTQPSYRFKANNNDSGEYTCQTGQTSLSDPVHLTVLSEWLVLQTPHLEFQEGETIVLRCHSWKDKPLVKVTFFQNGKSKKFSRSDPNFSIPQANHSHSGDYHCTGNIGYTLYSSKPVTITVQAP

[3] = target: T2, human FcγRIIb extracellular domain with …; experiment: SPR (Biacore), antibody captured, FcγR analyte
[4] = target: T3, human FcγRIIa type R (R131) extracellular domain with C-terminal His tag (human, UniProt P12318 34-217); experiment: SPR (Biacore), antibody captured, FcγR analyte
T3 construct: extracellular domain; also called FcγRIIaR; not shown: His tag at the C terminus
T3 sequence (looked up): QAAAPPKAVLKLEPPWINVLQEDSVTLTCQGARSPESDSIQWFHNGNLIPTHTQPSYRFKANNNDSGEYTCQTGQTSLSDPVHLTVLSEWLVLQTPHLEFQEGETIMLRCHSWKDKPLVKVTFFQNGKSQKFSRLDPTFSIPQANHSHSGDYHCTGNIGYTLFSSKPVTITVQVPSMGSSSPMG

[5] = target: T4, human FcγRIa extracellular domain with C-terminal His tag (human, UniProt P12314 16-292); experiment: SPR (Biacore), antibody captured, FcγR analyte
T4 construct: not shown: His tag at the C terminus
T4 sequence (P12314 16-292): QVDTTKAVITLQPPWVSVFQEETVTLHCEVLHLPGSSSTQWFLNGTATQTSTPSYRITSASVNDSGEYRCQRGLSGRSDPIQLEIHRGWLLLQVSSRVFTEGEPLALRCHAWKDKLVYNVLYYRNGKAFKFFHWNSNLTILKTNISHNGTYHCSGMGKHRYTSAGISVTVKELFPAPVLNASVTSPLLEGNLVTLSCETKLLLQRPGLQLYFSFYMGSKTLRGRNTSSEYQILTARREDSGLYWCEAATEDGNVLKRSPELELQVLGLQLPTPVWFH

[6] = target: T2, human FcγRIIb extracellular domain with …; experiment: SPR (Biacore); KD of IL6R-B3/IL6R-L divided by KD of this antibody
[7] = target: T3, human FcγRIIa type R (R131) …; experiment: as above
[8] = target: T5, human FcγRIIb extracellular domain (human, UniProt P31994 43-217); experiment: ratio of the SPR KD for FcγRIIaH to the KD for FcγRIIb (selectivity)
T5 construct: also called FcγIIB; not shown: His tag at the C terminus
T5 sequence: T2 sequence (looked up)

[9] = target: T5, human FcγRIIb extracellular domain; experiment: ratio of the SPR KD for FcγRIIaR to the KD for FcγRIIb (selectivity)
[10] = target: T5, human FcγRIIb extracellular domain; experiment: SPR (Biacore), antibody captured on chip, FcγR extracellular domain as analyte, 25 C
[11] = target: T6, human FcγRIa extracellular domain (human, UniProt P12314 16-292); experiment: as above
T6 construct: also called CD64; not shown: His tag at the C terminus

[12] = target: T7, human FcγRIIa type R extracellular domain (human, UniProt P12318 34-217); experiment: as above
T7 construct: also called FcγRIIaR; FcγRIIa(R); not shown: His tag at the C terminus
T7 chain: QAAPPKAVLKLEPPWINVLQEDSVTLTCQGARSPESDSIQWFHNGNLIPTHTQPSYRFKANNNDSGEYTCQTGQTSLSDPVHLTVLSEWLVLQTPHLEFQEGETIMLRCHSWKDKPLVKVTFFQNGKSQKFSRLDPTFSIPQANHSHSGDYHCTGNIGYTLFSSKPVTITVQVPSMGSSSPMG

[13] = target: T5, human FcγRIIb extracellular domain; experiment: fold against IL6R-B3/IL6R-L, from SPR KD values
[14] = target: T7, human FcγRIIa type R extracellular …; experiment: fold against IL6R-B3/IL6R-L, from SPR KD values
[15] = target: T8, human FcγRIIb extracellular domain with C-terminal His tag (human, UniProt P31994 43-217); experiment: SPR (Biacore)
T8 construct: extracellular domain
T8 sequence (looked up): T2 sequence (looked up)

[16] = target: T9, human FcγRIa extracellular domain with C-terminal His tag (human, UniProt P12314 16-292); experiment: SPR (Biacore)
T9 construct: extracellular domain
T9 sequence (P12314 16-292): as the sequence (P12314 16-292) above

[17] = target: T8, human FcγRIIb extracellular domain with …; experiment: SPR (Biacore); worded summary of Table 28
[18] = target: T10, human FcγRIIa type R extracellular domain with C-terminal His tag (human, UniProt P12318 34-217); experiment: SPR (Biacore); worded summary of Table 28
T10 construct: extracellular domain; also called FcγRIIaR; FcγRIIa(R)
T10 sequence (looked up): T3 sequence (looked up)

[19] = target: T10, human FcγRIIa type R extracellular …; experiment: SPR (Biacore)
[20] = target: T8, human FcγRIIb extracellular domain with …; experiment: SPR (Biacore), parent IL6R-B3/IL6R-L
[21] = target: T10, human FcγRIIa type R extracellular …; experiment: SPR (Biacore), parent IL6R-B3/IL6R-L
[22] = target: T8, human FcγRIIb extracellular domain with …; experiment: SPR (Biacore), ratio of KDs

T6 sequence (P12314 16-292): as the sequence (P12314 16-292) above

B1: tocilizumab (antibody, human IgG1, kappa)
heavy: not shown
light: not shown
notes: also called anti-IL-6R antibody (tocilizumab)
binding result [1]: binds

B3: IL6R-BP564/IL6R-L (antibody, human IgG1, kappa)
heavy: QVQLQESGPGLVKPSETLSLTCAVSGHSISHDHAWSWVRQPPGEGLEWIGFISYSGITNYNPSLQGRVTISRDNSKNTLYLQMNSLRAEDTAVYYCARSLARTTAMDYWGEGTLVTVSSASTKGPSVFPLAPSSKSTSGGTAALGCLVKDYFPEPVTVSWNSGALTSGVHTFPAVLQSSGLYSLSSVVTVPSSSLGTQTYICNVNHKPSNTKVDKKVEPKSCDKTHTCPPCPAPELLGDDSVFLFPPKPKDTLMISRTPEVTCVVVDVSEEDGDVKFNWYVDGVEVHNAKTKPREEQDNSTYRVVSVLTVLHQDWLNGKEYKCKVSNKALPRPIEKTISKAKGQPREPQVYTLPPSRDELTKNQVSLTCLVKGFYPSDIAVEWESNGQPENNYKTTPPVLDSDGSFFLYSKLTVDKSRWQQGNVFSCSVMHEALHNHYTQESLSLSP
light: not shown
notes: copies: 2 + 2
KD(IIaH)/KD(IIb) [8]: 454
KD(IIaR)/KD(IIb) [9]: 26.2
Kd [10]: 22 nM
Kd [11]: 31 nM
Kd [12]: 580 nM
KD(IIb) of the parent polypeptide/KD(IIb) of the altered polypeptide [13]: 141
KD(IIaR) of the parent polypeptide/KD(IIaR) of the altered polypeptide [14]: 1.9

B7: IL6R-BP500/IL6R-L (antibody, human IgG1, kappa)
heavy: B3 heavy with V266I, S269A, D274E, R332A
light: not shown
notes: copies: 2 + 2
Kd [15]: 24 nM
Kd [19]: 720 nM
Kd [16]: 2.3 nM
FcγRIIb-binding activity as compared to IL6R-B3/IL6R-L [17]: ≥ 100 times
FcγRIIaR binding as compared to IL6R-B3/IL6R-L [18]: ≤ 1.5 times
KD(IIb) parent/KD(IIb) altered polypeptide [20]: 128
KD(IIaR) parent/KD(IIaR) altered polypeptide [21]: 1.5
KD(IIaH)/KD(IIb) [22]: 1030
KD(IIaR)/KD(IIb) [22]: 29.9

B8: IL6R-BP562/IL6R-L (antibody, human IgG1, kappa)
heavy: B3 heavy with E270D
light: not shown
notes: copies: 2 + 2
KD(IIaH)/KD(IIb) [8]: 466
KD(IIaR)/KD(IIb) [9]: 29
Kd [10]: 24 nM
Kd [11]: 25 nM
Kd [12]: 680 nM
KD(IIb) of the parent polypeptide/KD(IIb) of the altered polypeptide [13]: 131
KD(IIaR) of the parent polypeptide/KD(IIaR) of the altered polypeptide [14]: 1.6

B12: 6RC1IgG_010 (antibody, V domains shown)
VH: QVQLVQSGAEVKKPGSSVKVSCKASGGTFSSYAISWVRQAPGQGLEWMGGIIPIFGTANYAQKFQGRVTITADESTSTAYMELSSLRSEDTAVYYCARAAFLEWPIWGSEYFQHWGQGTLVTVSS
VL: DIQMTQSPSSLSASVGDRVTITCRASQSIEDDLAWYQQKPGKAPKLLIYHASSLQSGVPSRFSGSGSGTDFTLTISSLQPEDFATYYCQQRDSYPLTFGQGTKVEIKR
binding result [1]: binds

The remaining lines, values ahead:

KD(IIaR)/KD(IIb) [2]: 26.2
Kd [3]: 19 nM
Kd [4]: 500 nM
Kd [5]: 12 nM
KD(IIb) of parent polypeptide/KD(IIb) of altered polypeptide [6]: 162
KD(IIaR) of parent polypeptide/KD(IIaR) of altered polypeptide [7]: 2.2
B2: IL6R-BP548/IL6R-L (antibody, human IgG1, kappa)
heavy: B3 heavy with E235D, E270D, D274E, Q421E
light: not shown
notes: Q419E introduced into IL6R-BP230; copies: 2 + 2

Kd [15]: 21 nM
Kd [16]: 0.82 nM
FcγRIIb-binding activity as compared to IL6R-B3/IL6R-L [17]: ≥ 100 times
FcγRIIaR binding as compared to IL6R-B3/IL6R-L [18]: ≤ 1.5 times
B4: IL6R-BP493/IL6R-L (antibody, human IgG1, kappa)
heavy: B3 heavy with D239G, V266I, S269A, D274E, R332A
light: not shown
notes: copies: 2 + 2

Kd [15]: 28 nM
Kd [19]: 1600 nM
Kd [16]: 1.1 nM
FcγRIIb-binding activity as compared to IL6R-B3/IL6R-L [17]: ≥ 100 times
FcγRIIaR binding as compared to IL6R-B3/IL6R-L [18]: ≤ 1.5 times
KD(IIb) parent/KD(IIb) altered polypeptide [20]: 110
KD(IIaR) parent/KD(IIaR) altered polypeptide [21]: 0.7
KD(IIaH)/KD(IIb) [22]: 712
KD(IIaR)/KD(IIb) [22]: 58.4
B5: IL6R-BP559/IL6R-L (antibody, human IgG1, kappa)
heavy: B3 heavy with D239G, V266I, S269A, R332A
light: not shown
notes: copies: 2 + 2

Kd [15]: 20 nM
Kd [19]: 850 nM
FcγRIIb-binding activity as compared to IL6R-B3/IL6R-L [17]: ≥ 100 times
FcγRIIaR binding as compared to IL6R-B3/IL6R-L [18]: ≤ 1.5 times
B6: IL6R-BP557/IL6R-L (antibody, human IgG1, kappa)
heavy: B3 heavy with S269G, E270D, D274E
light: not shown
notes: copies: 2 + 2

Kd [15]: 24 nM
Kd [19]: 920 nM
Kd [16]: 0.79 nM
FcγRIIb-binding activity as compared to IL6R-B3/IL6R-L [17]: ≥ 100 times
FcγRIIaR binding as compared to IL6R-B3/IL6R-L [18]: ≤ 1.5 times
KD(IIb) parent/KD(IIb) altered polypeptide [20]: 131
KD(IIaR) parent/KD(IIaR) altered polypeptide [21]: 1.2
KD(IIaH)/KD(IIb) [22]: 678
KD(IIaR)/KD(IIb) [22]: 38.8
B9: IL6R-BP492/IL6R-L (antibody, human IgG1, kappa)
heavy: B3 heavy with D239G, V266I, S269A, D274E, D298Y, R332A
light: not shown
notes: copies: 2 + 2

KD(IIaH)/KD(IIb) [8]: 168
KD(IIaR)/KD(IIb) [9]: 22.8
Kd [10]: 180 nM
Kd [11]: 5.6 nM
Kd [12]: 4200 nM
KD(IIb) of the parent polypeptide/KD(IIb) of the altered polypeptide [13]: 16.8
KD(IIaR) of the parent polypeptide/KD(IIaR) of the altered polypeptide [14]: 0.3
B10: IL6R-BP560/IL6R-L (antibody, human IgG1, kappa)
heavy: B3 heavy with D239G, S269G, D274E
light: not shown
notes: anti-human IL-6 receptor IgG1 variant; copies: 2 + 2

binding result [1]: binds
B11: 6RC1IgG_012 (antibody, V domains shown)
VH: QVQLVQSGAEVKKPGASVKVSCKASGYTFTSYGISWVRQAPGQGLEWMGWISAYNGNTNYAQKLQGRVTMTTDTSTSTAYMELRSLRSDDTAVYYCARATYYYDSSAPAFDIWGQGTMVTVSS
VL: B12 VL with H50E, S53T, R91H, S93D, Y94S
